Experimental data from patent US20140242080A1 (Hoffmann-La Roche, published 2014).

T1: human CEA expressed on tumor cells (LS-174T, A549-huCEA, MKN-45, MC38-huCEA, HPAFII, BxPC-3, ASPC-1) (human, UniProt P06731 35-685)
T1 sequence (looked up): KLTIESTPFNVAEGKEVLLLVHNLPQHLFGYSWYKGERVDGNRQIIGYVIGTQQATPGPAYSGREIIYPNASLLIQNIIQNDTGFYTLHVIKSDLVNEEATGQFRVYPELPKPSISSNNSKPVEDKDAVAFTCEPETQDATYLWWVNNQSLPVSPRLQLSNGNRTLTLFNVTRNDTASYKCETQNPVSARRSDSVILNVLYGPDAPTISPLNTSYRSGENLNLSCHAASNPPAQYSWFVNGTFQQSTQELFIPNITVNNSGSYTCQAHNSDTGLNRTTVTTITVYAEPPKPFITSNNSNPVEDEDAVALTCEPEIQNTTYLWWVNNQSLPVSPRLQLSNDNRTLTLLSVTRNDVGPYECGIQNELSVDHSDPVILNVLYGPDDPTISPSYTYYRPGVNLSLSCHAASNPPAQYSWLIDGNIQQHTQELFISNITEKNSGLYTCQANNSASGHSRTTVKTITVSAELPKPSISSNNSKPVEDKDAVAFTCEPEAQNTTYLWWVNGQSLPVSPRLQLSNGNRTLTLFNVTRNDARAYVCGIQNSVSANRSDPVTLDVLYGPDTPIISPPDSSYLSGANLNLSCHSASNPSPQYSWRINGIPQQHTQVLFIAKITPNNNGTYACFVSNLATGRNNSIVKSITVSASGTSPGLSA

T2: human NABA-avi-his (human)
T2 construct: Chimeric antigen with a C-terminal avi 6his tag; also called recombinant tumor target antigen
T2 chain: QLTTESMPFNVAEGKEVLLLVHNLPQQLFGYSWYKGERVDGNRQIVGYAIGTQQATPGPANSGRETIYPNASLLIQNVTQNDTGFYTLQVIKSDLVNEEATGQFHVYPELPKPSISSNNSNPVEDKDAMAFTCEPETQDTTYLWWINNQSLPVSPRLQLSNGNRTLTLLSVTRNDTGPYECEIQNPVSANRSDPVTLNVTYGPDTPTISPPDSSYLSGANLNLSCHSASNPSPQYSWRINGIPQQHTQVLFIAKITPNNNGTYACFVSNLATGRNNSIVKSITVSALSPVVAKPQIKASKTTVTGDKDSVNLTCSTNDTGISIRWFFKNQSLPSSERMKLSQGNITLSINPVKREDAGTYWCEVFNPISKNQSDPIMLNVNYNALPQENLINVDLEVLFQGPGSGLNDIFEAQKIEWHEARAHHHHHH

B1: 2 + 1 IgG Crossfab, inverted; CL/CH1 exchange (CH1A1A/V9) (anti-CEA/anti-huCD3) (bispecific antibody)
chain 1: QVQLVQSGAEVKKPGASVKVSCKASGYTFTEFGMNWVRQAPGQGLEWMGWINTKTGEATYVEEFKGRVTFTTDTSTSTAYMELRSLRSDDTAVYYCARWDFAYYVEAMDYWGQGTTVTVSSASTKGPSVFPLAPSSKSTSGGTAALGCLVKDYFPEPVTVSWNSGALTSGVHTFPAVLQSSGLYSLSSVVTVPSSSLGTQTYICNVNHKPSNTKVDKKVEPKSCDKTHTCPPCPAPEAAGGPSVFLFPPKPKDTLMISRTPEVTCVVVDVSHEDPEVKFNWYVDGVEVHNAKTKPREEQYNSTYRVVSVLTVLHQDWLNGKEYKCKVSNKALGAPIEKTISKAKGQPREPQVCTLPPSRDELTKNQVSLSCAVKGFYPSDIAVEWESNGQPENNYKTTPPVLDSDGSFFLVSKLTVDKSRWQQGNVFSCSVMHEALHNHYTQKSLSLSPGK
chain 2: DIQMTQSPSSLSASVGDRVTITCKASAAVGTYVAWYQQKPGKAPKLLIYSASYRKRGVPSRFSGSGSGTDFTLTISSLQPEDFATYYCHQYYTYPLFTFGQGTKLEIKRTVAAPSVFIFPPSDEQLKSGTASVVCLLNNFYPREAKVQWKVDNALQSGNSQESVTEQDSKDSTYSLSSTLTLSKADYEKHKVYACEVTHQGLSSPVTKSFNRGEC
chain 3: DIQMTQSPSSLSASVGDRVTITCRASQDIRNYLNWYQQKPGKAPKLLIYYTSRLESGVPSRFSGSGSGTDYTLTISSLQPEDFATYYCQQGNTLPWTFGQGTKVEIKSSASTKGPSVFPLAPSSKSTSGGTAALGCLVKDYFPEPVTVSWNSGALTSGVHTFPAVLQSSGLYSLSSVVTVPSSSLGTQTYICNVNHKPSNTKVDKKVEPKSC
chain 4: not shown
notes: also called CL/CH1-exchange construct
B2: 2 + 1 IgG Crossfab, inverted; VL/VH exchange (CH1A1A/V9) (anti-CEA/anti-huCD3) (bispecific antibody)
chain 1: EVQLVESGGGLVQPGGSLRLSCAASGYSFTGYTMNWVRQAPGKGLEWVALINPYKGVSTYNQKFKDRFTISVDKSKNTAYLQMNSLRAEDTAVYYCARSGYYGDSDWYFDVWGQGTLVTVSSASVAAPSVFIFPPSDEQLKSGTASVVCLLNNFYPREAKVQWKVDNALQSGNSQESVTEQDSKDSTYSLSSTLTLSKADYEKHKVYACEVTHQGLSSPVTKSFNRGEC
chain 2: not shown
chain 3: B1 chain 1
chain 4: B1 chain 2
notes: also called VL/VH-exchange construct
B3: CEA TCB (2+1 Crossfab-IgG P329G LALA inverted) (bispecific antibody)
chain 1: B1 chain 2
chain 2: QAVVTQEPSLTVSPGGTVTLTCGSSTGAVTTSNYANWVQEKPGQAFRGLIGGTNKRAPGTPARFSGSLLGGKAALTLSGAQPEDEAEYYCALWYSNLWVFGGGTKLTVLSSASTKGPSVFPLAPSSKSTSGGTAALGCLVKDYFPEPVTVSWNSGALTSGVHTFPAVLQSSGLYSLSSVVTVPSSSLGTQTYICNVNHKPSNTKVDKKVEPKSC
chain 3: not shown
chain 4: B1 chain 1
notes: CH1A1A 98/99 2F1 as anti-CEA and humanized CH2527 as anti-CD3 antibody; also called CEA TCB antibody

Experiments:
[1] = biological target: T1, human CEA expressed on tumor cells …; test: cell-based or functional assay
[2] = biological target: T3, human CD3 expressed on Jurkat cells (human, UniProt P07766 23-207); test: flow cytometry on Jurkat cells
T3 construct: CD3 complex on Jurkat T cells; also called CD3 on Jurkat cells; huCD3

[3] = biological target: T1, human CEA expressed on tumor cells …; test: flow cytometry on LS-174T cells
Method: Binding of the different bispecific constructs to CD3 on Jurkat cells (ATCC #TIB-152), and the respective tumor antigen on target cells, was determined by FACS. Briefly, cells were harvested, counted and checked for viability. 0.15-0.2 million cells per well (in PBS containing 0.1% BSA; 90 μl) were plated in a round-bottom 96-well plate and incubated with the indicated concentration of the bispecific constructs and corresponding IgG controls (10 μl) for 30 min at 4° C. […] After the incubation, cells were centrifuged (5 min, 350×g), washed with 150 μl PBS containing 0.1% BSA, resuspended and incubated for further 30 min at 4° C. with 12 μl/well of a FITC- or PE-conjugated secondary antibody. Bound constructs were detected using a FACSCantoII (Software FACS Diva). The “(scFv)₂” molecule was detected using a FITC-conjugated anti-His antibody (Lucerna, #RHIS-45F-Z). […] EC50 values were calculated using the GraphPad Prism software.
As a control, the equivalent maximum concentration of the corresponding IgGs and the background staining due to the labeled 2ndary antibody (goat anti-human FITC-conjugated AffiniPure F(ab′)2 Fragment, FcγFragment-specific, Jackson Immuno Research Lab #109-096-098) were assessed as well.

[4] = biological target: T1, human CEA expressed on tumor cells …; test: cell-based or functional assay; remark: listed apart in the source
[5] = biological target: T1, human CEA expressed on tumor cells …; test: flow cytometry on A549-huCEA cells
Method: Briefly, cells were harvested, counted, checked for viability and resuspended at 2×10⁶ cells/ml in FACS buffer (100 μl PBS 0.1% BSA).

human NABA-avi-his [6] = biological target: T2, human NABA-avi-his; test: SPR Biacore T100, 25 C; t1/2 = ln 2/koff
Method: (§1) Surface plasmon resonance (SPR) experiments were performed on a Biacore T100 at 25° C. with HBS-EP as running buffer (0.01 M HEPES pH 7.4, 0.15 M NaCl, 3 mM EDTA, 0.005% Surfactant P20, Biacore, Freiburg/Germany).
(§2) Kinetic constants were derived using the Biacore T200 Evaluation Software (vAA, Biacore AB, Uppsala/Sweden), to fit rate equations for 1:1 Langmuir binding by numerical integration. The half-life (t_{1/2}) of the interaction was calculated using following formula: t_{1/2}=ln 2/koff.

[7] = biological target: T4, human CD3ε stalk-Fc (knob)-Avi/CD3δ-stalk-Fc(hole) (human); test: SPR Biacore T100, 25 C; t1/2 = ln 2/koff
T4 construct: also called Human CD3ε/CD3δ; recombinant CD3ε/CD3δ
Method: as §1, §2

human NABA-avi-his [8] = biological target: T2, human NABA-avi-his; test: SPR Biacore T100, 25 C; TCB captured via anti-human Fab, antigen as analyte
[9] = biological target: T4, human CD3ε stalk-Fc …; test: as above

T4 sequence (chain, as listed by the source mutant limits assumed, chain 1 of 2): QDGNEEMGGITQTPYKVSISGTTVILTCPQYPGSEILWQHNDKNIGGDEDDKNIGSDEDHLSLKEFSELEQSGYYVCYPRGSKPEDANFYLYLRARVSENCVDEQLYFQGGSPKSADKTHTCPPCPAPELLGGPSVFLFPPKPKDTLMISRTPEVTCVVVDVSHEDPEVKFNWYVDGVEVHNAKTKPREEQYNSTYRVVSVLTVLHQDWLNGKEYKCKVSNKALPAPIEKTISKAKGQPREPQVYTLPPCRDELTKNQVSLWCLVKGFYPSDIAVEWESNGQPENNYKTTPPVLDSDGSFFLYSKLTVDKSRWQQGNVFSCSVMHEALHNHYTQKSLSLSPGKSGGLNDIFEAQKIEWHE
T4 sequence (chain, as listed by the source mutant limits assumed, chain 2 of 2): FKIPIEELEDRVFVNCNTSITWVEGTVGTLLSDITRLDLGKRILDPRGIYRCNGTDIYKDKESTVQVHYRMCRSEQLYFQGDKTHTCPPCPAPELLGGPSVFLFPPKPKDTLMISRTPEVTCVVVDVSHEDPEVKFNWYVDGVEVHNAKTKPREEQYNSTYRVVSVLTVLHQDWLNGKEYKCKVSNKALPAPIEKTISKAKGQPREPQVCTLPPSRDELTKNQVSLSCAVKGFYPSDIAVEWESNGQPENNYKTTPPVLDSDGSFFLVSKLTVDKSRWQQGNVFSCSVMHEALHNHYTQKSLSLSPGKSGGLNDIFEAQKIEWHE
T3 sequence (P07766 23-207 limits assumed): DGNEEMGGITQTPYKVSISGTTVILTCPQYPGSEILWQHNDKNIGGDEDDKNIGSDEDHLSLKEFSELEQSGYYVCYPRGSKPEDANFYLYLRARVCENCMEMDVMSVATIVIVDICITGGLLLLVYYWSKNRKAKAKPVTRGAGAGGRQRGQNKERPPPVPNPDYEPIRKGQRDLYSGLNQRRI

| Binder | EC50 of T cell-mediated killing (LDH release), LS-174T cells, human PBMCs E:T 10:1, 28 h [1] [nM] | EC50 of T cell-mediated killing (LDH release), MKN-45 cells, human PBMCs E:T 10:1, 28 h [1] [nM] | EC50 [2] [nM] | EC50 [3] [nM] | EC50 of T cell-mediated killing (LDH release), A549-hCEA cells, cynomolgus PBMCs E:T 10:1, 40 h [1] [nM] | EC50 of T cell-mediated killing (LDH release), A549-hCEA cells, human PBMCs E:T 10:1, 40 h [1] [nM] | EC50 [pM] 48 h of T-cell mediated killing (LDH release), ASPC1 cells, human PBMCs E:T 10:1 [4] [pM] | EC50 [pM] 48 h of T-cell mediated killing (LDH release), BxPC-3 cells, human PBMCs E:T 10:1 [4] [pM] | EC50 [pM] 48 h of T-cell mediated killing (LDH release), HPAFII cells, human PBMCs E:T 10:1 [4] [pM] | EC50 [5] [nM] | t1/2 (human NABA-avi-his [6]) [min] | t1/2 [7] [min] | Kd (human NABA-avi-his [8]) [nM] | koff (human NABA-avi-his [8]) [s⁻¹] | kon (human NABA-avi-his [8]) [M⁻¹ s⁻¹] | Kd [9] [nM] | koff [9] [s⁻¹] | kon [9] [M⁻¹ s⁻¹] |
| --- | --- | --- | --- | --- | --- | --- | --- | --- | --- | --- | --- | --- | --- | --- | --- | --- | --- | --- |
| B1 | 0.673 | 0.115 | 3.9 | 6.7 |  |  |  |  |  |  |  |  |  |  |  |  |  |  |
| B2 | 0.955 | 0.243 | 4.6 | 9.3 |  |  |  |  |  |  |  |  |  |  |  |  |  |  |
| B3 |  |  |  |  | 0.102 | 0.306 | 846 | 3780 | 667 | 6.6 | 5.3 | 5.7 | 62.4 | 0.00218 | 34900 | 75.3 | 0.00203 | 26900 |
